Reference: the supplement of paper PMC9112550, “Optimization of the antimicrobial peptide Bac7 by deep mutational scanning” (BMC Biology, 2022)

tested on: Escherichia coli TOP10; experiment: shrunken log2 fold change of peptide-encoding DNA abundance (4.5 h post-induction vs induction); higher = less antimicrobial activity (less host growth inhibition); settings: time post-induction: 4.5 h; library: site-saturation at positions 5, 18, 19, 20
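Further: peptides expressed intracellularly from a pBAD plasmid library in pooled LB shake-flask culture, induced with 0.3% L-arabinose, DNA abundance read by NGS, three biological replicates, DESeq2 with apeglm shrinkage.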

| Sequence | shrunken log2 fold change |
| --- | --- |
| RRIRVRPPRLPRPRPRPWYWPRP | -0.332 |
| RRIRMRPPRLPRPRPRPNNGPRP | 0.0562 |
| RRIRARPPRLPRPRPRPSIKPRP | -0.133 |
| RRIRHRPPRLPRPRPRPHEEPRP | -0.206 |
| RRIRVRPPRLPRPRPRPDSLPRP | -0.416 |
| RRIRKRPPRLPRPRPRPQCVPRP | 0.117 |
| RRIRSRPPRLPRPRPRPYWIPRP | -0.267 |
| RRIRNRPPRLPRPRPRPFAWPRP | 0.0341 |
| RRIRCRPPRLPRPRPRPMYMPRP | -0.143 |
| RRIRRRPPRLPRPRPRPYCAPRP | -0.0524 |
| RRIRRRPPRLPRPRPRPAFQPRP | 1.62 |
| RRIRWRPPRLPRPRPRPFDAPRP | 0.029 |
| RRIRQRPPRLPRPRPRPRRWPRP | 0.326 |
| RRIRARPPRLPRPRPRPKPMPRP | 0.831 |
| RRIRGRPPRLPRPRPRPPNMPRP | 0.0204 |
| RRIRLRPPRLPRPRPRPNKSPRP | -0.354 |
| RRIRARPPRLPRPRPRPYMVPRP | -0.583 |
| RRIRKRPPRLPRPRPRPRDQPRP | 0.000671 |
| RRIRGRPPRLPRPRPRPNKVPRP | 0.0962 |
| RRIRCRPPRLPRPRPRPPRAPRP | 0.934 |
| RRIRYRPPRLPRPRPRPRHCPRP | -0.251 |
| RRIRLRPPRLPRPRPRPIKLPRP | -0.515 |
| RRIRKRPPRLPRPRPRPMHHPRP | -0.126 |
| RRIRYRPPRLPRPRPRPKNPPRP | -0.315 |
| RRIRARPPRLPRPRPRPDNCPRP | -0.153 |

| Sequence | shrunken log2 fold change |
| --- | --- |
| RRIRGRPPRLPRPRPRPQEWPRP | 0.12 |
| RRIRFRPPRLPRPRPRPHCHPRP | -0.59 |
| RRIRPRPPRLPRPRPRPAWIPRP | 0.0812 |
| RRIRKRPPRLPRPRPRPHNGPRP | 0.169 |
| RRIRYRPPRLPRPRPRPSQIPRP | -0.766 |
| RRIRQRPPRLPRPRPRPWGWPRP | 0.546 |
| RRIRRRPPRLPRPRPRPSYQPRP | -0.141 |
| RRIRQRPPRLPRPRPRPQRLPRP | -0.0136 |
| RRIRGRPPRLPRPRPRPDPKPRP | 0.649 |
| RRIRPRPPRLPRPRPRPPVMPRP | 0.303 |
| RRIRARPPRLPRPRPRPAPHPRP | 0.814 |
| RRIRLRPPRLPRPRPRPFMAPRP | -0.343 |
| RRIRRRPPRLPRPRPRPDPDPRP | -0.0342 |
| RRIRVRPPRLPRPRPRPYFMPRP | -0.797 |
| RRIRQRPPRLPRPRPRPEPVPRP | 0.0323 |
| RRIRMRPPRLPRPRPRPMVTPRP | 0.131 |
| RRIRERPPRLPRPRPRPLNGPRP | -0.254 |
| RRIRCRPPRLPRPRPRPADDPRP | 0.116 |
| RRIRQRPPRLPRPRPRPEHCPRP | -0.199 |
| RRIRWRPPRLPRPRPRPWGKPRP | 0.0784 |
| RRIRHRPPRLPRPRPRPMHTPRP | 0.0398 |
| RRIRGRPPRLPRPRPRPLAAPRP | 1.91 |
| RRIRLRPPRLPRPRPRPGNCPRP | -0.0913 |
| RRIRSRPPRLPRPRPRPIMAPRP | 0.163 |
| RRIRNRPPRLPRPRPRPRWIPRP | 0.0158 |

| Sequence | shrunken log2 fold change |
| --- | --- |
| RRIRGRPPRLPRPRPRPVWFPRP | 0.239 |
| RRIRGRPPRLPRPRPRPHNAPRP | 0.0947 |
| RRIRLRPPRLPRPRPRPGSVPRP | 0.0433 |
| RRIRMRPPRLPRPRPRPLHFPRP | -0.0889 |
| RRIRFRPPRLPRPRPRPYGKPRP | -0.514 |
| RRIRNRPPRLPRPRPRPLDYPRP | -0.309 |
| RRIRYRPPRLPRPRPRPMHGPRP | 0.00652 |
| RRIRCRPPRLPRPRPRPSCDPRP | -0.0533 |
| RRIRKRPPRLPRPRPRPWLIPRP | 0.109 |
| RRIRVRPPRLPRPRPRPIYRPRP | -0.491 |
| RRIRKRPPRLPRPRPRPACPPRP | 0.664 |
| RRIRWRPPRLPRPRPRPFPAPRP | 0.342 |
| RRIRNRPPRLPRPRPRPCPSPRP | -0.0371 |
| RRIRRRPPRLPRPRPRPHRGPRP | -0.0548 |
| RRIRIRPPRLPRPRPRPQSGPRP | 0.00632 |
| RRIRWRPPRLPRPRPRPYKYPRP | -0.977 |
| RRIRQRPPRLPRPRPRPPYQPRP | -0.216 |
| RRIRGRPPRLPRPRPRPSKQPRP | -0.0392 |
| RRIRHRPPRLPRPRPRPHLEPRP | -0.0228 |
| RRIRDRPPRLPRPRPRPCVRPRP | -0.111 |
| RRIRDRPPRLPRPRPRPESNPRP | 0.892 |
| RRIRERPPRLPRPRPRPVGKPRP | -0.309 |
| RRIRARPPRLPRPRPRPFQTPRP | -0.0176 |
| RRIRQRPPRLPRPRPRPHQVPRP | -0.253 |
| RRIRKRPPRLPRPRPRPYARPRP | -0.0148 |

| Sequence | shrunken log2 fold change |
| --- | --- |
| RRIRNRPPRLPRPRPRPCVTPRP | -0.0849 |
| RRIRTRPPRLPRPRPRPYTVPRP | -0.0341 |
| RRIRFRPPRLPRPRPRPWVYPRP | -0.327 |
| RRIRWRPPRLPRPRPRPQFVPRP | -0.1 |
| RRIRFRPPRLPRPRPRPIKEPRP | -0.113 |
| RRIRPRPPRLPRPRPRPHKEPRP | 0.163 |
| RRIRARPPRLPRPRPRPEHQPRP | 0.399 |
| RRIRGRPPRLPRPRPRPNCQPRP | 0.458 |
| RRIRMRPPRLPRPRPRPFGQPRP | 0.0853 |
| RRIRMRPPRLPRPRPRPSKLPRP | -0.0679 |
| RRIRIRPPRLPRPRPRPWQRPRP | -0.075 |
| RRIRNRPPRLPRPRPRPWSVPRP | -0.328 |
| RRIRYRPPRLPRPRPRPAVGPRP | 0.0398 |
| RRIRGRPPRLPRPRPRPDDTPRP | 0.944 |
| RRIRIRPPRLPRPRPRPTADPRP | -0.063 |
| RRIRPRPPRLPRPRPRPLEEPRP | 0.215 |
| RRIRHRPPRLPRPRPRPDGNPRP | -0.105 |
| RRIRMRPPRLPRPRPRPQDWPRP | 0.00698 |
| RRIRFRPPRLPRPRPRPASSPRP | -0.204 |
| RRIRERPPRLPRPRPRPITTPRP | -0.03 |
| RRIRGRPPRLPRPRPRPRNMPRP | 0.0712 |
| RRIRPRPPRLPRPRPRPCFRPRP | 0.00938 |
| RRIRQRPPRLPRPRPRPTIKPRP | -0.374 |
| RRIRFRPPRLPRPRPRPRDGPRP | 1.36 |
| RRIRPRPPRLPRPRPRPHHYPRP | -0.37 |

| Sequence | shrunken log2 fold change |
| --- | --- |
| RRIRVRPPRLPRPRPRPMTRPRP | -0.123 |
| RRIRSRPPRLPRPRPRPIDPPRP | 0.017 |
| RRIRPRPPRLPRPRPRPNMKPRP | -0.52 |
| RRIRWRPPRLPRPRPRPLIMPRP | -0.0185 |
| RRIRYRPPRLPRPRPRPEPWPRP | 0.00405 |
| RRIRWRPPRLPRPRPRPSNIPRP | -0.699 |
| RRIRRRPPRLPRPRPRPIAAPRP | 0.521 |
| RRIRLRPPRLPRPRPRPSANPRP | -0.0303 |
| RRIRNRPPRLPRPRPRPTFCPRP | -0.379 |
| RRIRYRPPRLPRPRPRPETVPRP | -0.0477 |
| RRIRHRPPRLPRPRPRPHLAPRP | -0.0341 |
| RRIRIRPPRLPRPRPRPIPQPRP | -0.14 |
| RRIRIRPPRLPRPRPRPVAPPRP | 0.244 |
| RRIRQRPPRLPRPRPRPRQTPRP | 0.161 |
| RRIRIRPPRLPRPRPRPMWVPRP | -0.11 |
| RRIRMRPPRLPRPRPRPGDAPRP | 0.853 |
| RRIRERPPRLPRPRPRPIFDPRP | -0.349 |
| RRIRHRPPRLPRPRPRPQKSPRP | -0.138 |
| RRIRKRPPRLPRPRPRPVDIPRP | -0.0337 |
| RRIRLRPPRLPRPRPRPSESPRP | -0.244 |
| RRIRWRPPRLPRPRPRPCCMPRP | -0.196 |
| RRIRMRPPRLPRPRPRPFRKPRP | -0.0166 |
| RRIRDRPPRLPRPRPRPKQSPRP | 0.00791 |
| RRIRLRPPRLPRPRPRPPPMPRP | 0.966 |
| RRIRERPPRLPRPRPRPESHPRP | -0.0157 |

| Sequence | shrunken log2 fold change |
| --- | --- |
| RRIRYRPPRLPRPRPRPWHEPRP | -0.01 |
| RRIRARPPRLPRPRPRPVLFPRP | 0.268 |
| RRIRCRPPRLPRPRPRPPCVPRP | 0.0597 |
| RRIRRRPPRLPRPRPRPRCEPRP | 0.342 |
| RRIRTRPPRLPRPRPRPHEDPRP | -0.183 |
| RRIRRRPPRLPRPRPRPMYHPRP | -0.159 |
| RRIRYRPPRLPRPRPRPLPTPRP | -0.0873 |
| RRIRTRPPRLPRPRPRPHKIPRP | -0.587 |
| RRIRDRPPRLPRPRPRPPALPRP | 0.239 |
| RRIRNRPPRLPRPRPRPITIPRP | -0.366 |
| RRIRMRPPRLPRPRPRPTLFPRP | 0.428 |
| RRIRGRPPRLPRPRPRPHTNPRP | 0.221 |
| RRIRARPPRLPRPRPRPLYCPRP | 0.765 |
| RRIRTRPPRLPRPRPRPHMFPRP | -0.0142 |
| RRIRCRPPRLPRPRPRPKQIPRP | 0.0104 |
| RRIRRRPPRLPRPRPRPSLNPRP | 0.00555 |
| RRIRKRPPRLPRPRPRPMNKPRP | 0.0136 |
| RRIRIRPPRLPRPRPRPIEDPRP | 0.0806 |
| RRIRKRPPRLPRPRPRPTGPPRP | 0.588 |
| RRIRQRPPRLPRPRPRPAGHPRP | 0.000618 |
| RRIRNRPPRLPRPRPRPVFGPRP | 0.106 |
| RRIRPRPPRLPRPRPRPYIAPRP | -0.395 |
| RRIRIRPPRLPRPRPRPMPQPRP | -0.133 |
| RRIRCRPPRLPRPRPRPVHRPRP | -0.319 |
| RRIRERPPRLPRPRPRPNNWPRP | -0.524 |
